From paper PMC11953334, “Substrates bind to residues lining the ring of asymmetrically engaged bacterial proteasome activator Bpa” (Nature Communications, 2025)

Tests used:
[1] = molecular target: full-length 20S proteasome core particle, β-subunit T1A inactive variant (M. tuberculosis H37Rv) (UniProt P9WHU1); assay: cryo-EM structure
[2] = molecular target: full-length 20S proteasome core particle, β-subunit T1A inactive variant (M. tuberculosis H37Rv) (UniProt P9WHU1); assay: negative stain EM

| Substance | percent of core particles capped by Bpa on both ends [1] [%] | percent of proteasomes doubly capped [2] [%] | percent of proteasomes not associated with Bpa [2] [%] | percent of proteasomes singly capped [2] [%] | percent of proteasomes uncapped [2] [%] |
| --- | --- | --- | --- | --- | --- |
| bacterial proteasome activator Bpa, full-length, wild-type (from UniProt P9WKX3 1-174) (natural protein) | > 90 | > 80 | < 1 | – | – |
| covalent dimer of C-terminally truncated Bpa and full-length Bpa (BpaΔC-Bpa) (from UniProt P9WKX3) | – | – | – | 27 | 73 |
